Data as given in US8372961B2, “Polynucleotides encoding concatameric immunoadhesion molecules” (Medexgen Co., Ltd., priority 2001, dated 2013).

Key:
TNFα = TNFα (Homo sapiens, UniProt P01375); experiment: Neutralization of TNFα cytotoxicity on L929 cells (crystal violet staining); assay type: cell-based; details: for IC50 of cytotoxicity inhibition, TNFα treated: actinomycin D 3 μg/ml, TNFα 0.5~2 ng/ml (100% cytotoxicity), 16~18 hrs
Description: (§1) An L929 cell [ATCC, Mus musculus (mouse), NCTC clone 929 (derivative of strain L; L-929; L cell) was used for testing the effect of TNFR/Fc fusion protein on the inhibition of cytotoxicity induced by TNFα and TNFβ. This analysis was based on the TNFR activity of inhibiting cytotoxicity induced by TNF (Scallon et al., Cytokine 7:759, 1995).
(§2) L929 cells were inoculated to be 3×10^4 cells/well in 96-well plates, and incubated at 37° C. for 24 hrs in a CO2 incubator. Subsequently, actinomycin D (Sigma, USA) was added to 3 μg/ml, and cells were incubated for 16˜18 hrs with TNFα and TNFβ in the concentration of expressing 100% cytotoxicity (0.5˜2 ng/ml), and with serially 10 times diluted TNFR sample. Then, the cells in the 96-well plate were stained by the staining reagent, crystal violet (Wake Pure Chemical Industries, Japan) and the activity of the cells was estimated by the degree of absorbance at 595 nm wavelength using a spectrophotometer (Bio-Rad, Model-550, Japan).

TNFβ = molecular target: T1, TNFβ (Homo sapiens, UniProt P01374); experiment: Neutralization of TNFβ cytotoxicity on L929 cells (crystal violet staining); assay type: cell-based; details: for IC50 of cytotoxicity inhibition, TNFβ treated: actinomycin D 3 μg/ml, TNFβ 0.5~2 ng/ml (100% cytotoxicity), 16~18 hrs
T1 sequence (P01374 35-205): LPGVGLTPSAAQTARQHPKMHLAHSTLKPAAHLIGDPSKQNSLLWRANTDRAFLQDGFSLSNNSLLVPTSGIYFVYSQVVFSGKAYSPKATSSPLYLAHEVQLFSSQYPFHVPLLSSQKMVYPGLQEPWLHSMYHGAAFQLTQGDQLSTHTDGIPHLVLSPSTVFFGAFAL
Description: as §1, §2

TNFα, sequence (P01375 77-233 limits assumed, species assumed): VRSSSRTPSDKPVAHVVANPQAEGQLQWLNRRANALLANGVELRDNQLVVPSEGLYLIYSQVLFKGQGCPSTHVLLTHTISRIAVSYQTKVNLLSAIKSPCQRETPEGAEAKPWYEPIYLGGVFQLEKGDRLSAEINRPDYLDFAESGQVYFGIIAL

| Substance | IC50 of cytotoxicity inhibition, TNFα treated (TNFα) [µg/mL] | inhibitory effect on the cytotoxicity induced by TNFα, compared with simple dimeric fusion proteins (TNFα; versus TNFR1/Ig and TNFR2/Ig) | IC50 of cytotoxicity inhibition, TNFβ treated (TNFβ) [µg/mL] | inhibitory effect on the cytotoxicity induced by TNFβ, compared with simple dimeric fusion proteins (TNFβ; versus TNFR1/Ig and TNFR2/Ig) |
| --- | --- | --- | --- | --- |
| [TNFR1-TNFR1/Fc]2: concatameric fusion dimeric protein: two TNFR1 soluble extracellular domains in tandem fused to IgG1 Fc; monomer SEQ ID NO: 6 | 9 | higher inhibitory effect | 20 | higher inhibitory effect |
| [TNFR1/Fc]2: conventional simple fusion dimeric protein: soluble extracellular domain of human TNFR1 fused to IgG1 Fc; monomer SEQ ID NO: 2 [reference compound] | 63 | – | 129 | – |
